Data: paper PMC9205196 (Nature chemical biology, 2022)

T1: FGFR1, biotinylated (UniProt P11362 22-822, biotin (sulfo-NHS-biotin))
T1 chain: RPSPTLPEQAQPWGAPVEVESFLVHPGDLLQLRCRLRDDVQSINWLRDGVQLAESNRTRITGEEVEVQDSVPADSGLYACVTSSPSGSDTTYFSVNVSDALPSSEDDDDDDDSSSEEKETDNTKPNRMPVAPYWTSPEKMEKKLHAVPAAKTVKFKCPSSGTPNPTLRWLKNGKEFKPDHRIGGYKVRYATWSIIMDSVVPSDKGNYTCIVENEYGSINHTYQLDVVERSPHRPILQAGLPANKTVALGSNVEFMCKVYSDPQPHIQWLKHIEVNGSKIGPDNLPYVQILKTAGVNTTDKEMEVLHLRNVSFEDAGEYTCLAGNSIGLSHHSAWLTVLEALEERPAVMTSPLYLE


Columns and labels:
Assay in all cases: AlphaScreen or HTRF
[1] = target: Vitronectin (VN), biotinylated (UniProt P04004 20-478, biotin (sulfo-NHS-biotin))
[2] = target: T1, FGFR1, biotinylated
[3] = target: Recombinant human FGF2 (fibroblast growth factor-2), biotinylated (human, biotin (sulfo-NHS-biotin))
[4] = target: T1, FGFR1, biotinylated

Vitronectin (VN), biotinylated, sequence (P04004 20-478): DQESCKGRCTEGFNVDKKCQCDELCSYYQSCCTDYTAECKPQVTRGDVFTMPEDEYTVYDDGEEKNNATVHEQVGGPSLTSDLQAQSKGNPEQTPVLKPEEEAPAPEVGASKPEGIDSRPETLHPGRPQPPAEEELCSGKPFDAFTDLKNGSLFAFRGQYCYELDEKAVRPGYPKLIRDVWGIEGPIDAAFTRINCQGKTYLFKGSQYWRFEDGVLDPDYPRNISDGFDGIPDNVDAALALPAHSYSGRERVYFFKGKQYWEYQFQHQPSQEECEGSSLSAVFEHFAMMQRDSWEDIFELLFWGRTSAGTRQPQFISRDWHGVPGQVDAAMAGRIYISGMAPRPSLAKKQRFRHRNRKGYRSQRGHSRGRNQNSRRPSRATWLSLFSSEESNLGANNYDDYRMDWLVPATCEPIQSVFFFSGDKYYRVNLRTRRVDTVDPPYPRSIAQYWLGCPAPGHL

Row | EC50 [1] [pM] | EC50 [2] [pM] | EC50 [3] [pM] | EC50 of ternary complex formation with soluble non-tagged FGF2 [4] [pM] | Binder
1 | 800 | 400 | 300 | 4 | SDC1_(45,47HEP): murine syndecan-1 ectodomain with heparin conjugated at residues 45 and 47 (domain or fragment, p-propargyltyrosine (pPY) at 45 and 47, each joined by CuAAC to azido-heparin (azHEP)) QIVAVNVPPEDQDGSGDDSDNFYGYGTGALPDTLSRQTPSTWKDVWLLTATPTAPEPTSSNTETAFTSVLPAGEKPEEGEPVLHVEAEPGFTARDKEKEVTTRPRETVQLPITQRASTVRVTTAQAAVTSHPHGGMQPGLHETSAPTAPGQPDHQPPRVEGGGTSVIKEVVEDGTANQLPAGEGSGEQDFTFETSGENTAVAAVEPGLRNQPPVDEGATGASQSLLDRKEVLG
2 | > 100000 | > 20000 |  | 4000 | mSDC1: commercial glycosylated, mammalian expressed recombinant mouse SDC1 ectodomain (domain or fragment, UniProt P18828 23-255, looked up, native GAG chains from the mammalian host (CS predominant over HS by the paper's disaccharide analysis)) QIVAVNVPPEDQDGSGDDSDNFSGSGTGALPDTLSRQTPSTWKDVWLLTATPTAPEPTSSNTETAFTSVLPAGEKPEEGEPVLHVEAEPGFTARDKEKEVTTRPRETVQLPITQRASTVRVTTAQAAVTSHPHGGMQPGLHETSAPTAPGQPDHQPPRVEGGGTSVIKEVVEDGTANQLPAGEGSGEQDFTFETSGENTAVAAVEPGLRNQPPVDEGATGASQSLLDRKEVLG
3 | 500 | 300 | 300 | 8 | SDC1_(37,45,47HEP): murine syndecan-1 ectodomain with heparin conjugated at residues 37, 45 and 47 (domain or fragment, p-propargyltyrosine (pPY) at 37, 45 and 47, each joined by CuAAC to azido-heparin (azHEP)) QIVAVNVPPEDQDGYGDDSDNFYGYGTGALPDTLSRQTPSTWKDVWLLTATPTAPEPTSSNTETAFTSVLPAGEKPEEGEPVLHVEAEPGFTARDKEKEVTTRPRETVQLPITQRASTVRVTTAQAAVTSHPHGGMQPGLHETSAPTAPGQPDHQPPRVEGGGTSVIKEVVEDGTANQLPAGEGSGEQDFTFETSGENTAVAAVEPGLRNQPPVDEGATGASQSLLDRKEVLG
